Source: the FLAb antibody collection

B1: unnamed (protein)
chain 1: EVQLQQPGSELVRPGASVKLSCKASGYTFTSYWMHWVKQRPGQGLEWIGNIYPGSRSTNYDEKFKSKATLTVDTSSSTAYMQLSSLTSEDSAVYYCTRNGDYYVSSGDAMDYWGQGTSVTVSS
chain 2: DIQMTQTTSSLSASLGDRVTISCRTSQDIGNYLNWYQQKPDGTVKLLIYYTSRLHSGVPSRFSGSGSGTDFSLTINNVEQEDVATYFCQHYNTVPPTFGGGTKLEIK
B2: unnamed (protein)
chain 1: EVQLVESGGGLVQPGGSLRLSCAASGFTFSNYWISWVRQAPGKGLEWVAEIRSESDASATHYAEAVKGRFTISRDNAKNSLYLQMNSLRAEDTAVYYCLAYFDYGLAIQNYWGQGTLVTVSS
chain 2: EIVLTQSPATLSLSPGERATLSCKASKRVTTYVSWYQQKPGQAPRLLIYGASNRYLGIPARFSGSGSGTDFTLTISSLEPEDFAVYYCSQSYNYPYTFGQGTKLEIK
B3: unnamed (protein)
chain 1: EVQLVQSGAEVKKPGASVKVSCKASGYTLTSYGISWVRQAPGQGLEWMGWVSFYNGNTNYAQKLQGRGTMTTDPSTSTAYMELRSLRSDDTAVYYCARGYGMDVWGQGTTVTVSS
chain 2: ESALTQPASVSGSPGQSITISCTGTSSDVGGYNSVSWYQQHPGKAPKLMIYEVSNRPSGVSNRFSGSKSGNTASLTISGLQAEDEADYYCNSYTSTSMVFGGGTKLTVL
B4: unnamed (protein)
chain 1: QVQLQESGPGLVRPSQTLSLTCTVSGFTFTDFYMNWVRQPPGRGLEWIGFIRDKAKGYTTEYNPSVKGRVTMLVDTSKNQFSLRLSSVTAADTAVYYCAREGHTAAPFDYWGQGSLVTVSS
chain 2: DIQMTQSPSSLSASVGDRVTITCKASQNIDKYLNWYQQKPGKAPKLLIYNTNNLQTGVPSRFSGSGSGTDFTFTISSLQPEDIATYYCLQHISRPRTFGQGTKVEIK
B5: unnamed (protein)
chain 1: QVQLVQSGAELKKPGSSVKVSCKASGYIFTSSWINWVKQAPGQGLEWIGRIDPSDGEVHYNQDFKDKATLTVDKSTNTAYMELSSLRSEDTAVYYCARGFLPWFADWGQGTLVTVSS
chain 2: DIQMTQSPSTLSASVGDRVTITCKASENVDTYVSWYQQKPGKAPKLLIYGASNRYTGVPSRFSGSGSGTDFTLTISSLQPDDFATYYCGQSYNYPFTFGQGTKVEVK
B6: unnamed (protein)
chain 1: EVQLVQSGAEVKKPGSSVKVSCKASGYTITDSNIHWVRQAPGQSLEWIGYIYPYNGGTDYNQKFKNRATLTVDNPTNTAYMELSSLRSEDTAFYYCVNGNPWLAYWGQGTLVTVSS
chain 2: DIQLTQSPSTLSASVGDRVTITCRASESLDNYGIRFLTWFQQKPGKAPKLLMYAASNQGSGVPSRFSGSGSGTEFTLTISSLQPDDFATYYCQQTKEVPWSFGQGTKVEVK
B7: unnamed (protein)
chain 1: QVELVESGGGLVQPGGSLRLSCAASGFTFSSYAMSWVRQAPGKGLEWVSAINASGTRTYYADSVKGRFTISRDNSKNTLYLQMNSLRAEDTAVYYCARGKGNTHKPYGYVRYFDVWGQGTLVTVSS
chain 2: DIVLTQSPATLSLSPGERATLSCRASQSVSSSYLAWYQQKPGQAPRLLIYGASSRATGVPARFSGSGSGTDFTLTISSLEPEDFATYYCLQIYNMPITFGQGTKVEIK
B8: unnamed (protein)
chain 1: QVQLQESGPGLVKPSQTLSLTCSFSGFSLSTSGMGVGWIRQPSGKGLEWLAHIWWDGDESYNPSLKSRLTISKDTSKNQVSLKITSVTAADTAVYFCARNRYDPPWFVDWGQGTLVTVSS
chain 2: DIQMTQSTSSLSASVGDRVTITCRASQDISNYLSWYQQKPGKAVKLLIYYTSKLHSGVPSRFSGSGSGTDYTLTISSLQQEDFATYFCLQGKMLPWTFGQGTKLEIK
B9: unnamed (protein)
chain 1: QVQLVQPGAEVKKPGTSVKLSCKASGYTFTTYWMHWVRQAPGQGLEWIGEINPTNGHTNYNQKFQGRATLTVDKSTSTAYMELSSLRSEDTAVYYCARNYVGSIFDYWGQGTLLTVSS
chain 2: DIVMTQSPDSLAMSLGERVTLNCKASENVVSYVSWYQQKPGQSPKLLIYGASNRESGVPDRFSGSGSATDFTLTISSVQAEDVADYHCGQSYNYPYTFGQGTKLEIK
B10: unnamed (protein)
chain 1: QVQLVESGGGVVQPGRSLRLSCAASGFTFSSYDMSWVRQAPGKGLEWVAKVSSGGGSTYYLDTVQGRFTISRDNSKNTLYLQMNSLRAEDTAVYYCARHLHGSFASWGQGTTVTVSS
chain 2: EIVLTQSPATLSLSPGERATLSCQASQSISNFLHWYQQRPGQAPRLLIRYRSQSISGIPARFSGSGSGTDFTLTISSLEPEDFAVYYCQQSGSWPLTFGGGTKVEIK
B11: unnamed (protein)
chain 1: QVQLVQSGAEVKRPGASVKVSCKASGYTFTNDIIHWVRQAPGQRLEWMGWINAGYGNTQYSQNFQDRVSITRDTSASTAYMELISLRSEDTAVYYCAREPLWFGESSPHDYYGMDVWGQGTTVTVSS
chain 2: AIQLTQSPSSLSASVGDRVTITCRASQGISSALAWYQQKPGKAPKLLIYDASSLESGVPSRFSGSGSGTDFTLTISSLQPEDFATYYCQQFNSYPLTFGGGTKVEIK
B12: unnamed (protein)
chain 1: EVQLVESGGGLVQPGGSLRLSCAASGFTLRSYSMNWVRQAPGKGLEWVSYISRSSHTIFYADSVKGRFTISRDNAKNSLYLQMDSLRDEDTAMYYCARVYSSGWHVSDYFDYWGQGILVTVSS
chain 2: B11 chain 2
B13: unnamed (protein)
chain 1: QVQLVQSGAEVKKPGSSVKVSCKASGYTFGNYWMQWVRQAPGQGLEWMGAIYEGTGKTVYIQKFADRVTITADKSTSTAYMELSSLRSEDTAVYYCARLSDYVSGFGYWGQGTTVTVSS
chain 2: DIQMTQSPSSLSASVGDRVTITCRASKDISKYLNWYQQKPGKAPKLLIYYTSGYHSGVPSRFSGSGSGTDFTLTISSLQPEDFATYYCQQGDALPPTFGGGTKVEIK
B14: unnamed (protein)
chain 1: QVQLVESGGGLVQPGGSLRLSCAASGFTFRSYAMSWVRQAPGKGLEWVSAISGRGDNTYYADSVKGRFTISRDNSKNTLYLQMNSLRAEDTAVYYCAKMTSNAFAFDYWGQGTLVTVSS
chain 2: QSVLTQPPSVSGAPGQRVTISCTGSSSNIGAGYGVHWYQQLPGTAPKLLIYGNTNRPSGVPDRFSGFKSGTSASLAITGLQAEDEADYYCQSYDSSLSGWVFGGGTKLTVL
B15: unnamed (protein)
chain 1: QVQLQESGPGLVKPSETLSLTCAVSGGSISGGYGWGWIRQPPGKGLEWIGSFYSSSGNTYYNPSLKSQVTISTDTSKNQFSLKLNSMTAADTAVYYCVRDRLFSVVGMVYNNWFDVWGPGVLVTVSS
chain 2: ESALTQPPSVSGAPGQKVTISCTGSTSNIGGYDLHWYQQLPGTAPKLLIYDINKRPSGISDRFSGSKSGTAASLAITGLQTEDEADYYCQSYDSSLNAQVFGGGTRLTVL
B16: unnamed (protein)
chain 1: EVQLVESGGGVVQPGKSLRLSCAASGLTFSSYAVHWVRQAPGKGLEWVTLISYDGANQYYADSVKGRFTISRDNSKNTVYLQMNSLRPEDTAVYYCAVPGPVFGIFPPWSYFDNWGQGILVTVSS
chain 2: EIVLTQSPATLSVSPGERATLSCRASQVISHNLAWYQQKPGQAPRLLIYGASTRASGIPARFSGSGSGTDYTLTITSLQSEDFAVYYCQHYSNWPPRLTFGGGTKVEIK
B17: unnamed (protein)
chain 1: EVQLVESGGGVVQPGRSLRLSCSASGFTFSGYGLSWVRQAPGKGLEWVAMISSGGSYTYYADSVKGRFAISRDNAKNTLFLQMDSLRPEDTGVYFCARHGDDPAWFAYWGQGTPVTVSS
chain 2: DIQLTQSPSSLSASVGDRVTITCSVSSSISSNNLHWYQQKPGKAPKPWIYGTSNLASGVPSRFSGSGSGTDYTFTISSLQPEDIATYYCQQWSSYPYMYTFGQGTKVEIK
B18: unnamed (protein)
chain 1: EVQLVESGGGLVKPGGSLRLSCAASGFPFSKLGMVWVRQAPGKGLEWVSTISSGGGYTYYPDSVKGRFTISRDNAKNSLYLQMNSLRAEDTAVYYCAREGISFQGGTYTYVMDYWGQGTLVTVSS
chain 2: DIVMTQSPLSLPVTPGEPASISCRSSKSLLHRNGITYSYWYLQKPGQSPQLLIYQLSNLASGVPDRFSGSGSGTDFTLKISRVEAEDVGVYYCYQNLELPLTFGQGTKVEIK
B19: unnamed (protein)
chain 1: EVQLVESGGGLVQPGGSLRLSCAASGFFITNNYWGWVRQAPGKGLEWVGYISYSGSTSYNPSLKSRFTISRDTSKNTFYLQMNSLRAEDTAVYYCARTGSSGYFDFWGQGTLVTVSS
chain 2: DIQMTQSPSSLSASVGDRVTITCRASESVDDLLHWYQQKPGKAPKLLIKYASQSISGVPSRFSGSGSGTDFTLTISSLQPEDFATYYCQQGNSLPNTFGQGTKVEIK

Assay: patients with anti-drug antibodies; higher = more immunogenic

| Protein | patients with anti-drug antibodies [%] |
| --- | --- |
| B1 | 0 |
| B2 | 1.6 |
| B3 | 0.3 |
| B4 | 5.1 |
| B5 | 7.8 |
| B6 | 0 |
| B7 | 0 |
| B8 | 37 |
| B9 | 0 |
| B10 | 0 |
| B11 | 1.7 |
| B12 | 2.9 |
| B13 | 8.7 |
| B14 | 2.9 |
| B15 | 0 |
| B16 | 1 |
| B17 | 8.7 |
| B18 | 6.5 |
| B19 | 5 |
